Results from patent US20060286609A1 (BIOCHECK, published 2006).

T1: Mouse Id1: Histidine (mouse, UniProt P20067-2 1-148)
T1 construct: E. coli fusion protein (vector pGW07); also called m-Id1-His; not shown: His-tag
T1 sequence: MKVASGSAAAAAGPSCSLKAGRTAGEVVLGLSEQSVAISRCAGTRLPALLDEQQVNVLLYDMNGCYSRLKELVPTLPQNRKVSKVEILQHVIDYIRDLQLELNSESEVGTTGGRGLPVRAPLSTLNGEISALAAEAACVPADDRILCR

T2: Human Id2: Histidine (human, UniProt Q02363 1-134, limits assumed)
T2 construct: E. coli fusion protein (vector pGW07); also called h-Id2: His; not shown: His-tag
T2 sequence (looked up): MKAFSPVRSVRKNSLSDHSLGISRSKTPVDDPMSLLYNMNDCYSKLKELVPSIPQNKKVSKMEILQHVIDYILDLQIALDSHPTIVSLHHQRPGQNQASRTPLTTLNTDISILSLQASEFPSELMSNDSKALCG

T3: Human Id3: Histidine (human, UniProt Q02535 1-119, limits assumed)
T3 construct: E. coli fusion protein (vector pGW07); also called h-Id3: His; not shown: His-tag
T3 sequence (looked up): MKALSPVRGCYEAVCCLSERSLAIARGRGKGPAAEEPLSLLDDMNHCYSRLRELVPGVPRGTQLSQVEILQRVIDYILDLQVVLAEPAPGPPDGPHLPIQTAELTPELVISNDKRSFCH


What was measured:
[1] = target: Human Id1: Histidine (human) (UniProt P41134); experiment: sandwich ELISA, 5-3-coated wells, human Id1:His 2.5 ng/ml, detected with rabbit polyclonal B-5133-HRP
Chain of Human Id1: Histidine (human) (P41134 whole entry): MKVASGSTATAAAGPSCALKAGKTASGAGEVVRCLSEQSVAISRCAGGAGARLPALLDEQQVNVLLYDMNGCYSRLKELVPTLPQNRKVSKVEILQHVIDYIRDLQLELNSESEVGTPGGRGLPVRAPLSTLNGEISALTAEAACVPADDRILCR

[2] = target: Human Id1: Histidine (human) (UniProt P41134); experiment: ELISA, coated antigen, Ab 0.10 ug/ml
[3] = target: Human Id1: Histidine (human) (UniProt P41134); experiment: ELISA, coated antigen, Ab 0.50 ug/ml
[4] = target: Human Id1: Histidine (human) (UniProt P41134); experiment: ELISA, coated antigen, Ab 1.00 ug/ml
[5] = target: Human Id1: Histidine (human) (UniProt P41134); experiment: ELISA, coated antigen, Ab 5.00 ug/ml
[6] = target: Human Id1: Histidine (human) (UniProt P41134); experiment: ELISA, coated antigen; relative to mouse Id1
[7] = target: T4, glutathione S-transferase (GST) (UniProt P08515 1-218 = GST); experiment: ELISA, coated antigen, Ab 0.50 ug/ml
T4 construct: Coated on wells as control for the fusion partner of the immunogen
T4 sequence (P08515 whole entry, the tested form may be a part): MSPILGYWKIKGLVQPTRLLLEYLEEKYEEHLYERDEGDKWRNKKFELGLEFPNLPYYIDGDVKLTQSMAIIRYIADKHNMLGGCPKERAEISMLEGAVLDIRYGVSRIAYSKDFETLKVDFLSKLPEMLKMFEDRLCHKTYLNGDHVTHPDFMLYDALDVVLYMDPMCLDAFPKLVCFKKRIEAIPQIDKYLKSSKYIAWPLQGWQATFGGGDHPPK
Method: (§1) Incubate plates at 2-8° C. overnight (16-24 hours). [0145] 11. Shake off the BSA solution. [0146] 12. Dispense 250 μL of 2.5% sucrose solution into each well. [0147] 13. Incubate plates at 2-8° C. for 4 hours. [0148] 14. Shake off sucrose solution. [0149] 15. Dry in vacuum at room temperature overnight. Screening Method [0150] 1. Dispense 100 μL of antibody diluent, diluted rabbit polyclonal anti-Id1 into appropriate wells. […] 2. Incubate at room temperature with mechanical shaking at 750 rpm for 90 minutes. [0152] 3. Remove the incubation mixture by flicking plate content into an appropriate waste container, followed by rinsing the wells 5 times with distilled water. […] 4. Strike the wells sharply onto absorbent paper or paper towels to remove all residual water droplets. [0154] 5. Dispense 100 μL of Goat Anti-Rabbit IgG-HRP Conjugate Reagent into each well. Gently mix for 5 seconds. [0155] 6. Incubate at room temperature with mechanical shaking at 750 rpm for 90 minutes. […] 7. Repeat procedures 3 and 4. [0157] 8. Dispense 100 μL of TMB Reagent into each well. Gently mix for 5 seconds. [0158] 9. Incubate at room temperature with mechanical shaking at 750 rpm for 20 minutes. [0159] 10. Add 100 μL of Stop Solution (1N HCl) into each well. [0160] 11. Gently mix for 10 seconds to ensure a complete mixing. […] 12. Read optical density (absorbance) at 450 nm. Results from this assay were used to select the rabbit sera with the highest antibodies titer that selectively reacts with mouse Id1 or human Id1 or both.
(§2) A comparison was carried out between the reactivity of the rabbit monoclonal anti-mouse Id1, clone #BCH-1/#37-2, of this invention and the mouse monoclonal anti-mouse/human Id1 from BD Pharmingen with the following antigens prepared in Example 5: mouse Id1:His, human Id1:His, human Id2:His, human Id3:His, and GST. These antigens and protein were used to coat the wells.
(§3) Materials and methods were those described in Example 9 except (a) Pharmingen's mouse monoclonal anti-mouse Id1 was used in addition to the rabbit monoclonal anti-mouse Id1 (Example 10), and (b) goat anti-mouse IgG-HRP conjugate was used to process the wells treated with the Pharmingen monoclonal antibody and polyclonal goat anti-rabbit IgG-HRP conjugate was used to process wells treated with rabbit monoclonal anti-mouse Id1.

[8] = target: T1, Mouse Id1: Histidine; experiment: ELISA, coated antigen, Ab 0.50 ug/ml
Method: as §1, §2, §3

[9] = target: T2, Human Id2: Histidine; experiment: ELISA, coated antigen, Ab 0.50 ug/ml
Method: as §1, §2, §3

[10] = target: T3, Human Id3: Histidine; experiment: ELISA, coated antigen, Ab 0.50 ug/ml
Method: as §1, §2, §3

[11] = target: T4, glutathione S-transferase (GST); experiment: ELISA, coated antigen, Ab 10.0 ug/ml
Method: as §1, §2, §3

[12] = target: T1, Mouse Id1: Histidine; experiment: ELISA, coated antigen, Ab 10.0 ug/ml
Method: as §1, §2, §3

[13] = target: T2, Human Id2: Histidine; experiment: ELISA, coated antigen, Ab 10.0 ug/ml
Method: as §1, §2, §3

[14] = target: T3, Human Id3: Histidine; experiment: ELISA, coated antigen, Ab 10.0 ug/ml
Method: as §1, §2, §3

[15] = target: T4, glutathione S-transferase (GST); experiment: ELISA, coated antigen, Ab 0 ug/ml (blank)
Method: as §1, §2, §3

[16] = target: T1, Mouse Id1: Histidine; experiment: ELISA, coated antigen, Ab 0 ug/ml (blank)
Method: as §1, §2, §3

[17] = target: T2, Human Id2: Histidine; experiment: ELISA, coated antigen, Ab 0 ug/ml (blank)
Method: as §1, §2, §3

[18] = target: T3, Human Id3: Histidine; experiment: ELISA, coated antigen, Ab 0 ug/ml (blank)
Method: as §1, §2, §3

Molecule | A450 [1] | A450 [2] | A450 [3] | A450 [4] | A450 [5] | Cross-reactivity (%) [6] | A450 [7] | A450 [8] | A450 [9] | A450 [10] | A450 [11] | A450 [12] | A450 [13] | A450 [14] | A450 [15] | A450 [16] | A450 [17] | A450 [18]
rabbit monoclonal anti-human Id1, clone #BCH-2/#5-3 (antibody) | 0.244 A450 |  |  |  |  |  |  |  |  |  |  |  |  |  |  |  |  | 
rabbit monoclonal anti-mouse Id1, clone #BCH-1/#37-2 (antibody, V domains shown, Rabbit IgG from hybridoma, Protein G purified; also called m Id1 MoAb 37-2; Rabbit Monoclonal Anti-Mouse Id1 (#37-2)) VH: QSVEESGGRLVTPGTPLTLTCKVSGFDINSYAMDWFRQAPGKGLEWIGMMSTRGNTYYTSWAKGRFTISKTSSTTVDLKMTSLTTEDTATYFCARGGLWGPGTLVTVSS VL: RVLTQTASPVSAAVGGTVTINCQASQSVYNGNRLGWYQLKPGQSPKELIHDASTLASGVPSRFRGSGSGTQFTLTINDVQCDDAATYYCVGSYACSTGDCNVFGGGTEVVVK |  | 0.061 A450 | 0.091 A450 | 0.113 A450 | 0.153 A450 | < 1% | 0.053 A450 | 2.46 A450 | 0.052 A450 | 0.052 A450 | 0.108 A450 | 3.27 A450 | 0.115 A450 | 0.113 A450 | 0.047 A450 | 0.047 A450 | 0.045 A450 | 0.046 A450
